Substrate: [H][C@@]12COP(=O)(O)O[C@@]1([H])[C@@H](O)[C@H](n1cnc3c(=O)[nH]c(N)nc31)O2
Assay: phosphodiesterase assay kit (Biomol Green phosphate detection), Michaelis-Menten plot
Type: biochemical, Arabidopsis thaliana
Conditions: 25 °C, 60 min, GST fusion, Figure 3 legend prints 0.2587 μM, substrate of the plot not named in the legend

B1: CN-PDE1 (AtCN-PDE1, PDE1, AtPDE1) (Arabidopsis thaliana) (protein)
chain: MAAKTMRKAEELVEKAMKGNDASHDAWHVWRVRDLALSIAREEGLSSNSDSMEIVELAALLHDIGDYKYIRDPSEEKLVENFLDDEGIEETKKTKILTIINGMGFKDELAGVALCESLPEFGVVQDADRLDAIGAIGIARCFTFGGSRNRVLHDPEIKPRTELTKEQYIKREEQTTINHFHEKLLKLKKLMKTEAGKRRAEKRHKFMEEYLKEFYEEWDGST
Km: 0.259 µM

Reference: paper PMC6692503, “Short- and Long-Term Effects of UVA on Arabidopsis Are Mediated by a Novel cGMP Phosphodiesterase” (Current Biology, 2019)
